Experimental findings from patent US7718774 (MacroGenics, dated 2010) are described below.

The assay has as its target T1, His-tagged 2Ig-B7H3 (R&D Systems) (UniProt Q5ZPR3-2 29-245, limits assumed).
T1 construct: the 2Ig form is an isoform of it; also called 2Ig-B7H3(His); xHis 2Ig (when captured by mouse anti-poly His antibody); not shown: His tag
T1 sequence (looked up): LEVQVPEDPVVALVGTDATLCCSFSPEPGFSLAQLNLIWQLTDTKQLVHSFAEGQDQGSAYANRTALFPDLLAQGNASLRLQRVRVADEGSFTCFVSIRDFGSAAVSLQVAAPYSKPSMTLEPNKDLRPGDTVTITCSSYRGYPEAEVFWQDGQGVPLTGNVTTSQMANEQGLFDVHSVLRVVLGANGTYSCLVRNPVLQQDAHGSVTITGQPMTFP
Briefly: ELISA, 5 µg/ml 2Ig-B7H3(His) captured by mouse anti-poly His antibody, streptavidin-HRP. Here is the method: To further investigate mu-anti-TES binding to 4Ig-B7H3, ELISA crosslinking experiments with a His-tagged 2Ig-B7H3 (R&D Systems) were performed. 5 µg/ml of a capture antibody, mouse anti-poly His antibody, was coated on a 96-well plate as a control, a no coat well (naked well) was also used. The wells with the capture antibody were then blocked with HBSS+1% BSA. 5 µg/ml of 2Ig-B7H3(His) or 4Ig-B7H3(His) was introduced into naked wells or capture antibody-coated wells. As a control, 5 µg/ml of 2Ig-B7H3(Fc) was introduced into naked wells. The plate was then blocked again with HBSS+1% BSA. Then […] of biotinylated mu-anti-TES7, BLA8, PA20 or STO5 (another anti-B7H3 antibody that only recognizes the 4Ig form of B7H3) was introduced into the plate. The bound biotinylated antibodies were then detected with streptavidin-HRP using standard protocols.
(In an ELISA, binding on a coated surface is turned into a signal by an enzyme label.)

B1: mu-anti-TES7 (antibody, V domains shown)
VH: QVQLQQSGPELVKPGTSVRISCKASGYTFTSYYIHWVKQRPGQGLEWIGWIYPGNVNTKYNENFKGKATLTADKSSSTAYMQLSSLTSEDSAVYFCARGGYFFDQWGQGTTLTVSS
VL: DVQITQSPSYLAASPGETITVNCRASESISKYLAWYQEKPGKTNKLLIYSGSTLQSGIPSRFSGSGSGSDFTLTISSLEPEDFAMYYCHQHNEFPLTFGAGTKLELK
notes: Mouse monoclonal IgG purified from hybridoma supernatant on protein G; also called mouse anti-huTES7 antibody; murine anti-TES7 antibody
As for B1, the binding result is listed as “no binding”.
